Reference: the supplement of paper PMC9732359
± gives the uncertainty stated by the source.

Experiment: protein stability index of a GFP-peptide fusion (yeast GPS) (PSI 1-4); higher = more stable; sorted into four equal gates, so the index is relative within each strain
Procedure, shortened: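 Tiled 17-residue yeast protein peptides were fused downstream of GFP in a plasmid that also expresses Cherry, and the pooled library was carried in yeast. Mid-log cultures in leucine-free medium were sorted into four equal gates by GFP/Cherry fluorescence ratio, and plasmids from each gate were PCR-amplified and Illumina-sequenced, with reads assigned to strains by barcodes. The protein stability index for each peptide was each gate's read frequency times its gate number, summed.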

Sequence	protein stability index (doa10∆)	protein stability index (pdr5∆)	protein stability index (san1∆)	protein stability index (ubr1∆)
YPDLQPFVLAENMWPFS [CDC53]	1.68 ± 0.05	2.09 ± 0.044	2.01 ± 0.055	1.71 ± 0.044
ITKVTENLFSKEEVCQG [YMR129W/POM152]	2.95 ± 0.085	2.77 ± 0.092	2.97 ± 0.074	3.06 ± 0.082
DIFVYLTYDKDLTNNPQ [MTR3]	2.1 ± 0.05	1.98 ± 0.073	2.35 ± 0.1	2.28 ± 0.065
GEAEAEKEEEEAKEESD [RPP1A]	2.13 ± 0.22	3.51 ± 0.15	2.54 ± 0.16	3.52 ± 0.14
YQKEYETAERNIIQAKR [RPL7A]	2.81 ± 0.25	2.75 ± 0.14	1.94 ± 0.16	
GSIEEPELNVSLNLTDD [MCD1]	3.38 ± 0.058	3.44 ± 0.05	3.15 ± 0.064	3.39 ± 0.04
YKDSLALINDLLREFKK [RPN6]		2.42 ± 0.22	1.86 ± 0.22	3.21 ± 0.23
RRSTPFSKIAEYYRIQK [ESC2]	2.77 ± 0.071	2.9 ± 0.094	2.72 ± 0.078	2.94 ± 0.11
AMEFIFGNSLICEDPET [SMC2]	2.38 ± 0.073	2.25 ± 0.054	1.37 ± 0.094	1.88 ± 0.049
LEKIHSIEVQSLPEFFT [SWI3]	2.69 ± 0.074	2.53 ± 0.073	2.43 ± 0.12	2.52 ± 0.069
EVQCTSTPYLEILVEES [PCI8]	2.3 ± 0.067	2.96 ± 0.18	2.33 ± 0.14	2.64 ± 0.083
NDEKRVKEEYDIWQSRD [YIL149C/MLP2]	3.22 ± 0.062	3.06 ± 0.078	3.25 ± 0.049	3.39 ± 0.084
AEVNGGDDEATEIISTL [BRR2]	3.33 ± 0.094	3.1 ± 0.13	3.43 ± 0.095	3.11 ± 0.21
NCIRILADKLENYEGKQ [YIL149C/MLP2]	3 ± 0.3	3.57 ± 0.2	3.22 ± 0.093	2.81 ± 0.19
DRHIGCVYSGLIPDGRH [PRE10]	3.18 ± 0.098	3.41 ± 0.088	3.1 ± 0.062	3.54 ± 0.12
ALDFRNVSIVANYIKER [SMC4]	1.51 ± 0.069	2.04 ± 0.058	1.51 ± 0.11	1.82 ± 0.058
PIDNNIIFASTKLGFTF [SNU114]	2.63 ± 0.05	2.52 ± 0.047	2.38 ± 0.054	2.67 ± 0.035
ELEQLSSEALEAARICA [RPL10]	1.21 ± 0.071	1.35 ± 0.059	1.33 ± 0.14	1.12 ± 0.06
YEIRDIDQDIHGIVFQH [SSN2]	2.5 ± 0.049	2.6 ± 0.056	2.72 ± 0.051	2.75 ± 0.033
IAHENEQKWLIYDKKDH [SRB8]	2.88 ± 0.13	2.83 ± 0.093	2.77 ± 0.17	2.8 ± 0.071
DFKEVEDFLHFIVAEYI [SRB4]	2.73 ± 0.071	3.22 ± 0.11	3.13 ± 0.056	3.14 ± 0.056
SKSKQSFTQGELNDLKW [YMR129W/POM152]	3.02 ± 0.13	2.81 ± 0.13	3.08 ± 0.11	2.75 ± 0.092
IFLKRKDFTNKNLIQLI [SRB8]	1.31 ± 0.053	1.43 ± 0.041	1.28 ± 0.086	1.4 ± 0.041
LRLPFSAAMSIDKLSDV [PRP8]	2.43 ± 0.053	2.42 ± 0.038	2.24 ± 0.048	2.3 ± 0.033
AYGNWFNGLKPLIQNSM [PRP8]	2.94 ± 0.063	3.31 ± 0.099	2.85 ± 0.11	3.13 ± 0.049
SYELIKEECQIEDDGII [CSN9]	2.77 ± 0.11	3.01 ± 0.088	3.06 ± 0.069	3.1 ± 0.054
IVQAKEPNLAAQQDSTN [ECM29]	2.51 ± 0.11	2.88 ± 0.054	2.69 ± 0.1	2.75 ± 0.063

Sequence	protein stability index (doa10∆)	protein stability index (pdr5∆)	protein stability index (san1∆)	protein stability index (ubr1∆)
GLALQLFKKLKEENDEG [RPN2]	3.27 ± 0.12	3.28 ± 0.12	2.96 ± 0.1	3.41 ± 0.096
AGASPMVNTQQPIVTGT [PRE4]	2.67 ± 0.17	2.67 ± 0.29		
SMVYSNVGELIEKNVME [RRP4]	2.06 ± 0.052	2.66 ± 0.053	2.55 ± 0.056	2.03 ± 0.048
QFNATINPESREIVMPA [ITC1]	1.87 ± 0.15	1.86 ± 0.17	1.7 ± 0.13	1.14 ± 0.19
DINVESLTQSVCDLALR [PUP2]	1.52 ± 0.1	1.91 ± 0.067	1.67 ± 0.18	1.93 ± 0.037
KKHTKKFKRHHSDRYHR [RPL32]	2.88 ± 0.038	2.99 ± 0.034	2.87 ± 0.029	2.971 ± 0.025
LAFAKLVHSEYLINGKR [SRP68]	2.18 ± 0.11	2.5 ± 0.056	2.15 ± 0.082	2.53 ± 0.034
SLRRQVKKLEIQQHARY [RPL43A]	2.75 ± 0.11	2.89 ± 0.1	2.96 ± 0.077	3.29 ± 0.09
SKQTPQPKAPRAPKVIH [ISW2]	2.91 ± 0.05	3.14 ± 0.054	2.93 ± 0.041	3.14 ± 0.047
YSALNSTYLPKLISAFD [RRP42]	2.69 ± 0.068	2.41 ± 0.06	2.57 ± 0.06	2.39 ± 0.055
DTVEEKKEEKLNIGKNF [SIR4]	2.42 ± 0.16	2.71 ± 0.25	3.34 ± 0.2	2.42 ± 0.13
WEQLKITVVPVVAAAED [QCR6]	1.89 ± 0.059	2.14 ± 0.059	1.99 ± 0.099	2.03 ± 0.033
LEALRQNYRLDGRSFDQ [RRP45]	2.43 ± 0.11	1.97 ± 0.12	1.61 ± 0.14	2.81 ± 0.086
LSRYVKWPEYVRVQRQK [RPL8A]		2.67 ± 0.13		3.02 ± 0.22
LLPLVVSNISCLTGTVA [ECM29]	1.25 ± 0.041	1.38 ± 0.034	1.38 ± 0.094	1.45 ± 0.037
TMADAVRELGILCIFEG [SEC65]	2.52 ± 0.06	2.05 ± 0.071	2.62 ± 0.063	1.45 ± 0.062
IFFNIPLVAHLGLYVGV [YJL039C/NUP192]	1.42 ± 0.044	1.4 ± 0.059	1.27 ± 0.1	1.33 ± 0.048
TPSTSSNGEFIPHIFYS [CSE2]	2.36 ± 0.054	2.44 ± 0.043	2.62 ± 0.044	2.82 ± 0.048
NYNHLLPTRYTLDVEAF [RPL27A]	1.45 ± 0.045	1.61 ± 0.047	1.57 ± 0.087	1.52 ± 0.032
TYSFIDNDRFNVVGKLI [YML103C/NUP188]	2.34 ± 0.058	2.27 ± 0.06	2.07 ± 0.072	2.16 ± 0.04
LEEEFVSNSEILKPFEK [RPT2]	2.85 ± 0.074	2.88 ± 0.054	3.05 ± 0.073	2.51 ± 0.14
LTEEELKTRYVGRQDPK [RPN11]		3.36 ± 0.13	3.26 ± 0.14	3.56 ± 0.21
SLPRFSKPVLIVGQKNL [DIS3]	2.2 ± 0.089	2.42 ± 0.074	1.77 ± 0.082	1.7 ± 0.12
TENATENDQQDNEEWMN [LIN1]	3.23 ± 0.072	3.03 ± 0.067	3.06 ± 0.062	2.77 ± 0.05
ERLMSRPFGVALLIAGH [PUP2]	2.81 ± 0.28	3.08 ± 0.11	2.74 ± 0.1	2.95 ± 0.081
TIPILESDSKATLQSNE [DSN1]	2.8 ± 0.12	2.16 ± 0.11	2.36 ± 0.16	2.67 ± 0.081
